Reference: US20180362668

Key:
[1] = biological target: T1, VhH-Fc fusion protein chain B with D356C + T366S + L368A + Y407V + F405K; experiment: non-reducing SDS-PAGE densitometry of Protein A-purified co-transfection product; chain A:chain B vectors 1:4
[2] = biological target: Fc protein chain B with D356C + T366S + L368A + Y407V + F405K; experiment: non-reducing SDS-PAGE of Protein A-purified co-transfection product; chain A:chain B vectors 4:1
[3] = biological target: T1, VhH-Fc fusion protein chain B with …; experiment: non-reducing SDS-PAGE densitometry of Protein A-purified co-transfection product; chain A:chain B vectors 4:1
[4] = biological target: Fc protein chain B with D356C + T366S + L368A + Y407V + F405K; experiment: non-reducing SDS-PAGE of Protein A-purified co-transfection product; chain A:chain B vectors 1:4
[5] = biological target: T2, VhH-Fc fusion protein chain B with T366S + L368A + Y407V + D399S + F405K; experiment: non-reducing SDS-PAGE densitometry of Protein A-purified co-transfection product; chain A:chain B vectors 1:4
[6] = biological target: T2, VhH-Fc fusion protein chain B with …; experiment: non-reducing SDS-PAGE densitometry of Protein A-purified co-transfection product; chain A:chain B vectors 1:1
[7] = biological target: T2, VhH-Fc fusion protein chain B with …; experiment: non-reducing SDS-PAGE densitometry of Protein A-purified co-transfection product; chain A:chain B vectors 4:1
[8] = biological target: T3, VhH-Fc fusion protein chain B with T366S + L368G + Y407A + F405K; experiment: non-reducing SDS-PAGE densitometry of Protein A-purified co-transfection product; chain A:chain B vectors 1:4
[9] = biological target: T3, VhH-Fc fusion protein chain B with …; experiment: non-reducing SDS-PAGE densitometry of Protein A-purified co-transfection product; chain A:chain B vectors 4:1

B1: ScFv-Fc fusion protein chain A with Y349C + T366W + K409A (protein)
chain: EVQLLESGGGVVQPGRSLRLSCIASGFTFSSYPMTWVRQAPGKGLEWVASISYDGSYKYKADSMKGRLTISRDNSKNTLYLEMNSLTAEDTAVYYCARTAFFNAYDFWGQGTLVTVSSASTKGPSVGGGGSGGGGSEIVMTQSPATLSVSPGERATLSCRASQSVRSNLAWYQQKPGQAPRLLIYAASTRATGIPARFSGSGSGTEFTLTISSLQSEDFAVYYCQQYNEWFRTSGQGTKVEIKRDKTHTCPPCPAPELLGGPSVFLFPPKPKDTLMISRTPEVTCVVVDVSHENPEVKFNWYVDGVEVHNAKTKPREEQYNSTYRVVSVLTVLHQDWLNGKEYKCKVSNKALPAPIEKTISKAKGQPREPQVCTLPPSRDELTKNQVSLWCLVKGFYPSDIAVEWESNGQPENNYKTTPPVLDSDGSFFLYSALTVDKSRWQQGNVFSCSVMHEALHNHYTQKSLSLSPGK
[1]
  ScFv-Fc/VhH-Fc heterodimer (%): 47%
[2]
  ScFv-Fc/Fc heterodimer (%): 53%
[3]
  ScFv-Fc/VhH-Fc heterodimer (%): 54%
[4]
  ScFv-Fc/Fc heterodimer (%): 66%

B2: ScFv-Fc fusion protein chain A with T366W + K409A + K392D (protein)
chain: EVQLLESGGGVVQPGRSLRLSCIASGFTFSSYPMTWVRQAPGKGLEWVASISYDGSYKYKADSMKGRLTISRDNSKNTLYLEMNSLTAEDTAVYYCARTAFFNAYDFWGQGTLVTVSSASTKGPSVGGGGSGGGGSEIVMTQSPATLSVSPGERATLSCRASQSVRSNLAWYQQKPGQAPRLLIYAASTRATGIPARFSGSGSGTEFTLTISSLQSEDFAVYYCQQYNEWFRTSGQGTKVEIKRDKTHTCPPCPAPELLGGPSVFLFPPKPKDTLMISRTPEVTCVVVDVSHENPEVKFNWYVDGVEVHNAKTKPREEQYNSTYRVVSVLTVLHQDWLNGKEYKCKVSNKALPAPIEKTISKAKGQPREPQVYTLPPSRDELTKNQVSLWCLVKGFYPSDIAVEWESNGQPENNYDTTPPVLDSDGSFFLYSALTVDKSRWQQGNVFSCSVMHEALHNHYTQKSLSLSPGK
[5]
  ScFv-Fc/VhH-Fc heterodimer (%): 73%
[6]
  ScFv-Fc/VhH-Fc heterodimer (%): 80%
[7]
  ScFv-Fc/VhH-Fc heterodimer (%): 61%

B3: ScFv-Fc fusion protein chain A with T366W + K409A (protein)
chain: EVQLLESGGGVVQPGRSLRLSCIASGFTFSSYPMTWVRQAPGKGLEWVASISYDGSYKYKADSMKGRLTISRDNSKNTLYLEMNSLTAEDTAVYYCARTAFFNAYDFWGQGTLVTVSSASTKGPSVGGGGSGGGGSEIVMTQSPATLSVSPGERATLSCRASQSVRSNLAWYQQKPGQAPRLLIYAASTRATGIPARFSGSGSGTEFTLTISSLQSEDFAVYYCQQYNEWFRTSGQGTKVEIKRDKTHTCPPCPAPELLGGPSVFLFPPKPKDTLMISRTPEVTCVVVDVSHENPEVKFNWYVDGVEVHNAKTKPREEQYNSTYRVVSVLTVLHQDWLNGKEYKCKVSNKALPAPIEKTISKAKGQPREPQVYTLPPSRDELTKNQVSLWCLVKGFYPSDIAVEWESNGQPENNYKTTPPVLDSDGSFFLYSALTVDKSRWQQGNVFSCSVMHEALHNHYTQKSLSLSPGK
[8]
  ScFv-Fc/VhH-Fc heterodimer (%): 89%
[9]
  ScFv-Fc/VhH-Fc heterodimer (%): 52%
